Numbered stars: 1 amine (or outer) side, 2 acyl side, 3 side chain; on linkers, the order of the positions; unused ones are H or OH. Bridge positions count the residues as written; N and C are the ends. Side chains are listed from the residue outwards. Ends that are not written are not given here. * marks the point of attachment. C20 diacid = O=C(O)CCCCCCCCCCCCCCCCCCC(=O)*; γGlu = O=C(O)[C@H](CCC(=O)[*:2])N[*:1]
T1: rat calcitonin receptor (rat, UniProt P32214 25-516)
T1 construct: whole, on cells; Used as membranes prepared from the transfected cells (Assay VIII); also called rCTR; rat calcitonin (a) receptor
T1 sequence (looked up): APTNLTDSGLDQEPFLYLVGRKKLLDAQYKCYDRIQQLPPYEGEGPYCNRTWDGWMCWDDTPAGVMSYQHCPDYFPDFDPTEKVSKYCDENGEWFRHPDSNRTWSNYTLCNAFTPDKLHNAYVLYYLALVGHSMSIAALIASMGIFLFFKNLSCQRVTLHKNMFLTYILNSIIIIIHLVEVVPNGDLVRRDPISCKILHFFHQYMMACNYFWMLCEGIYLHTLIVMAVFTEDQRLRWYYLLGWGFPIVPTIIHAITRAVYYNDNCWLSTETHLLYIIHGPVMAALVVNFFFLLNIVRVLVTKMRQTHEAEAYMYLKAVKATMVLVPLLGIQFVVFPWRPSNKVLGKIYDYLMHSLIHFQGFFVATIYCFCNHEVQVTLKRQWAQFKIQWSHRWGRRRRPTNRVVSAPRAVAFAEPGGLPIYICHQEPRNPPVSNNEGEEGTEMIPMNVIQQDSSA

T2: human calcitonin receptor (human, UniProt P30988 25-474)
T2 construct: whole, on cells; Used as membranes prepared from the transfected cells (Assay VII); also called hCTR; hCT
T2 sequence (looked up): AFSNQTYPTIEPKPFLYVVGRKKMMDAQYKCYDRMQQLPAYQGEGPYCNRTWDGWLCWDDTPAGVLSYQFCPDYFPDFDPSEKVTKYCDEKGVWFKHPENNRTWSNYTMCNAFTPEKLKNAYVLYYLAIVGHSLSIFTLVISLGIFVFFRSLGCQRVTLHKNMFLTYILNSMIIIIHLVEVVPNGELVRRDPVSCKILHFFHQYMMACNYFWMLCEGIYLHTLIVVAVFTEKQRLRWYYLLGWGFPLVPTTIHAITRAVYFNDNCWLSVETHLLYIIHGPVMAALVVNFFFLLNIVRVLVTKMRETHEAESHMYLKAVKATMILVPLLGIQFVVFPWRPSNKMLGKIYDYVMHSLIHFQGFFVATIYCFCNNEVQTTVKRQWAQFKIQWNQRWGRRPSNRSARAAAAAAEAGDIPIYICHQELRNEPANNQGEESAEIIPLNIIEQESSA

T3: rat amylin receptor (rat calcitonin receptor + rat RAMP 3) (rat, UniProt P32214 25-516; Q9JJ73 23-147)
T3 construct: whole, on cells; Used as membranes prepared from the transfected cells (Assay VI); also called rAmylin-R; rat amylin 3(a) receptor
T3 sequence (looked up) 1: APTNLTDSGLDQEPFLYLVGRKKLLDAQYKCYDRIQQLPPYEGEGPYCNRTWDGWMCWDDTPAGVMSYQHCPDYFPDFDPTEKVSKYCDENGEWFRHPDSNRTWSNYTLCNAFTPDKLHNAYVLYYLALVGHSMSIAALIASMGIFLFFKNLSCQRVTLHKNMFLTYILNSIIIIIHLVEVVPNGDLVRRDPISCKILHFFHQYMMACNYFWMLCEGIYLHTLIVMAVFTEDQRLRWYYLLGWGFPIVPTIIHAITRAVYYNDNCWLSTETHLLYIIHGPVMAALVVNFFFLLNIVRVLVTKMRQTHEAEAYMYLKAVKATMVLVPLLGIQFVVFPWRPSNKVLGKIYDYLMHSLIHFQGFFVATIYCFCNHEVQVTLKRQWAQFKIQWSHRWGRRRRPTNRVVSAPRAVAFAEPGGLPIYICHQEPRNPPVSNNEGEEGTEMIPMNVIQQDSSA
T3 sequence (looked up) 2: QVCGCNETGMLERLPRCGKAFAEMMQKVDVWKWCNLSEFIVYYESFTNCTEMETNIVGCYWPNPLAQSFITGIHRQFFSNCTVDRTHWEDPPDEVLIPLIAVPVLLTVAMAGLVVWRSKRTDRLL


Assays:
rat calcitonin receptor [1] = target: T1, rat calcitonin receptor; assay: ratio of IC50 on rat calcitonin receptor (Assay VIII) to IC50 on rat amylin receptor (Assay VI)
[2] = target: T2, human calcitonin receptor; assay: ratio of IC50 on human calcitonin receptor (Assay VII) to IC50 on human amylin receptor (Assay V)
Description: The resulting pellet was resuspended, homogenized and centrifuged (20.000 rpm, 15 min) in a buffer containing 20 mM Na-HEPES and 0.1 mM EDTA (pH 7.4, buffer 2). The resulting pellet was resuspended in buffer 2 and protein concentration was measured (BCA protein Assay, Pierce). The homogenate was kept cold during the whole procedure. The membranes were kept at −80° C. until use. The assay was performed in a 384 well Optiplate (PerkinElmer) in a total volume of 40 ul. Membranes were mixed with SPA beads. Final concentration of membranes 35 ng/μL final and SPA beads was 0.05 mg/well. Test-compounds were dissolved in DMSO and further diluted in assay buffer (50 mM Hepes, pH 7.4, 1 mM CaCl2, 5 mM MgCl₂, 0.1% OA and 0.02% Tween20). […] The final mixture was incubated with shaking at 400 rpm for 120 min at 25° C. prior to centrifugation (1500 rpm, 10 min). Samples were analyzed on TopCounter™ (Packard). The IC₅₀ was calculated using (one site binding competition analysis) GraphPad Prism5 as a measure of receptor affinity.
Membranes were prepared in the following way; the cells were rinsed with PBS and incubated with Versene for approximately 5 min before harvesting. The cells were flushed with PBS and the cell-suspension was centrifuged for 5 min at 1000 rpm. Cells were homogenized (Ultrathurrax) in a buffer containing 20 mM Na-HEPES and 10 mM EDTA (pH 7.4) and centrifuged at 20.000 rpm for 15 min. The resulting pellet was resuspended, homogenized and centrifuged (20.000 rpm, 15 min) in a buffer containing 20 mM Na-HEPES and 0.1 mM EDTA (pH 7.4, buffer 2). The resulting pellet was resuspended in buffer 2 and protein concentration was measured (BCA protein Assay, Pierce). The homogenate was kept cold during the whole procedure. The membranes were kept at −80° C. until use. Assay was performed in a 384 well Optiplate (PerkinElmer) in a total volume of 40 ul. Membranes were mixed with SPA beads.

rat calcitonin receptor [3] = target: T1, rat calcitonin receptor; assay: SPA competition binding, displacement of 125I-calcitonin from membranes of BHK tk'ts 13 cells transfected with rat calcitonin receptor (Assay VIII)
[4] = target: T3, rat amylin receptor (rat calcitonin …); assay: SPA competition binding, displacement of 125I-rat amylin from membranes of BHK tk'ts 13 cells transfected with rat calcitonin receptor + rat RAMP 3 (Assay VI)

Binder | Ratio rCT/rAmylin binding (rat calcitonin receptor [1]) | Ratio hCT/hAmylin binding [2] | IC50 (rat calcitonin receptor [3]) [nM] | IC50 [4] [nM]
K([γGlu-C20 diacid])CNTATCATQRLADFLRHSSPNFGAIPSSTNVGPRTY-NH2 (disulfide 2-7; N-terminus assumed; SMILES CC[C@H](C)[C@H](NC(=O)[C@H](C)NC(=O)CNC(=O)[C@H](Cc1ccccc1)NC(=O)[C@H](CC(N)=O)NC(=O)[C@@H]1CCCN1C(=O)[C@H](CO)NC(=O)[C@H](CO)NC(=O)[C@H](Cc1c[nH]cn1)NC(=O)[C@H](CCCNC(=N)N)NC(=O)[C@H](CC(C)C)NC(=O)[C@H](Cc1ccccc1)NC(=O)[C@H](CC(=O)O)NC(=O)[C@H](C)NC(=O)[C@H](CC(C)C)NC(=O)[C@H](CCCNC(=N)N)NC(=O)[C@H](CCC(N)=O)NC(=O)[C@@H](NC(=O)[C@H](C)NC(=O)[C@@H]1CSSC[C@H](NC(=O)[C@@H](N)CCCCNC(=O)CC[C@H](NC(=O)CCCCCCCCCCCCCCCCCCC(=O)O)C(=O)O)C(=O)N[C@@H](CC(N)=O)C(=O)N[C@@H]([C@@H](C)O)C(=O)N[C@@H](C)C(=O)N[C@@H]([C@@H](C)O)C(=O)N1)[C@@H](C)O)C(=O)N1CCC[C@H]1C(=O)N[C@@H](CO)C(=O)N[C@@H](CO)C(=O)N[C@H](C(=O)N[C@@H](CC(N)=O)C(=O)N[C@H](C(=O)NCC(=O)N1CCC[C@H]1C(=O)N[C@@H](CCCNC(=N)N)C(=O)N[C@H](C(=O)N[C@@H](Cc1ccc(O)cc1)C(N)=O)[C@@H](C)O)C(C)C)[C@@H](C)O, not restated for each compound) | 116 | 151 | 58.5 | 0.504
K([γGlu-C20 diacid])CNTATCATQRLAEFLRHSSPNFGAIPSSTNVGRETY-NH2 (disulfide 2-7; N-terminus assumed; SMILES CC[C@H](C)[C@H](NC(=O)[C@H](C)NC(=O)CNC(=O)[C@H](Cc1ccccc1)NC(=O)[C@H](CC(N)=O)NC(=O)[C@@H]1CCCN1C(=O)[C@H](CO)NC(=O)[C@H](CO)NC(=O)[C@H](Cc1c[nH]cn1)NC(=O)[C@H](CCCNC(=N)N)NC(=O)[C@H](CC(C)C)NC(=O)[C@H](Cc1ccccc1)NC(=O)[C@H](CCC(=O)O)NC(=O)[C@H](C)NC(=O)[C@H](CC(C)C)NC(=O)[C@H](CCCNC(=N)N)NC(=O)[C@H](CCC(N)=O)NC(=O)[C@@H](NC(=O)[C@H](C)NC(=O)[C@@H]1CSSC[C@H](NC(=O)[C@@H](N)CCCCNC(=O)CC[C@H](NC(=O)CCCCCCCCCCCCCCCCCCC(=O)O)C(=O)O)C(=O)N[C@@H](CC(N)=O)C(=O)N[C@@H]([C@@H](C)O)C(=O)N[C@@H](C)C(=O)N[C@@H]([C@@H](C)O)C(=O)N1)[C@@H](C)O)C(=O)N1CCC[C@H]1C(=O)N[C@@H](CO)C(=O)N[C@@H](CO)C(=O)N[C@H](C(=O)N[C@@H](CC(N)=O)C(=O)N[C@H](C(=O)NCC(=O)N[C@@H](CCCNC(=N)N)C(=O)N[C@@H](CCC(=O)O)C(=O)N[C@H](C(=O)N[C@@H](Cc1ccc(O)cc1)C(N)=O)[C@@H](C)O)C(C)C)[C@@H](C)O, not restated for each compound) | 81.1 | 28.5 | 86.1 | 1.06
K([γGlu-C20 diacid])CNTATCATQRLAEFLRHSSPNFGAIPSSTNVGSHTY-NH2 (disulfide 2-7; N-terminus assumed; SMILES CC[C@H](C)[C@H](NC(=O)[C@H](C)NC(=O)CNC(=O)[C@H](Cc1ccccc1)NC(=O)[C@H](CC(N)=O)NC(=O)[C@@H]1CCCN1C(=O)[C@H](CO)NC(=O)[C@H](CO)NC(=O)[C@H](Cc1c[nH]cn1)NC(=O)[C@H](CCCNC(=N)N)NC(=O)[C@H](CC(C)C)NC(=O)[C@H](Cc1ccccc1)NC(=O)[C@H](CCC(=O)O)NC(=O)[C@H](C)NC(=O)[C@H](CC(C)C)NC(=O)[C@H](CCCNC(=N)N)NC(=O)[C@H](CCC(N)=O)NC(=O)[C@@H](NC(=O)[C@H](C)NC(=O)[C@@H]1CSSC[C@H](NC(=O)[C@@H](N)CCCCNC(=O)CC[C@H](NC(=O)CCCCCCCCCCCCCCCCCCC(=O)O)C(=O)O)C(=O)N[C@@H](CC(N)=O)C(=O)N[C@@H]([C@@H](C)O)C(=O)N[C@@H](C)C(=O)N[C@@H]([C@@H](C)O)C(=O)N1)[C@@H](C)O)C(=O)N1CCC[C@H]1C(=O)N[C@@H](CO)C(=O)N[C@@H](CO)C(=O)N[C@H](C(=O)N[C@@H](CC(N)=O)C(=O)N[C@H](C(=O)NCC(=O)N[C@@H](CO)C(=O)N[C@@H](Cc1c[nH]cn1)C(=O)N[C@H](C(=O)N[C@@H](Cc1ccc(O)cc1)C(N)=O)[C@@H](C)O)C(C)C)[C@@H](C)O, not restated for each compound) | 22.7 | 26.4 | 26.3 | 1.16
K([γGlu-C20 diacid])CNTATCATQRLAHFLRHSSPNFGAIPSSTPVGPNTY-NH2 (disulfide 2-7; N-terminus assumed; SMILES CC[C@H](C)[C@H](NC(=O)[C@H](C)NC(=O)CNC(=O)[C@H](Cc1ccccc1)NC(=O)[C@H](CC(N)=O)NC(=O)[C@@H]1CCCN1C(=O)[C@H](CO)NC(=O)[C@H](CO)NC(=O)[C@H](Cc1c[nH]cn1)NC(=O)[C@H](CCCNC(=N)N)NC(=O)[C@H](CC(C)C)NC(=O)[C@H](Cc1ccccc1)NC(=O)[C@H](Cc1c[nH]cn1)NC(=O)[C@H](C)NC(=O)[C@H](CC(C)C)NC(=O)[C@H](CCCNC(=N)N)NC(=O)[C@H](CCC(N)=O)NC(=O)[C@@H](NC(=O)[C@H](C)NC(=O)[C@@H]1CSSC[C@H](NC(=O)[C@@H](N)CCCCNC(=O)CC[C@H](NC(=O)CCCCCCCCCCCCCCCCCCC(=O)O)C(=O)O)C(=O)N[C@@H](CC(N)=O)C(=O)N[C@@H]([C@@H](C)O)C(=O)N[C@@H](C)C(=O)N[C@@H]([C@@H](C)O)C(=O)N1)[C@@H](C)O)C(=O)N1CCC[C@H]1C(=O)N[C@@H](CO)C(=O)N[C@@H](CO)C(=O)N[C@H](C(=O)N1CCC[C@H]1C(=O)N[C@H](C(=O)NCC(=O)N1CCC[C@H]1C(=O)N[C@@H](CC(N)=O)C(=O)N[C@H](C(=O)N[C@@H](Cc1ccc(O)cc1)C(N)=O)[C@@H](C)O)C(C)C)[C@@H](C)O, not restated for each compound) | 72.4 | 24.8 | 9.05 | 0.125
K([γGlu-C20 diacid])CNTATCATQRLAEFLRHSSPNFGAIPSSTNVGPHTY-NH2 (disulfide 2-7, not restated for each compound) | 52.2 | 21.2 | 5.43 | 0.104

Source: patent US20140087995A1 (published 2014)
